Paper PMC12650144, “Interactive Role of the DHPR β1a SH3 Domain in Skeletal Muscle Excitation–Contraction Coupling” (Biomolecules, 2025)

Assays:
[1] = molecular target: T1, DHPR β1a subunit, full length (mouse, UniProt Q8R3Z5-4 1-524); assay: other fluorescence titration; tryptophan fluorescence quenching: intrinsic fluorescence of the β subunit or β1a-SH3 domain in the cuvette (sub-micromolar; 50 nM β1a-FL for the AID titration) monitored while titrating the II-III loop or peptides; excitation 280 nm, emission 340 nm; corrected for dilution and intrinsic fluorescence of the titrant; nonlinear regression; conditions: both partners purified
T1 construct: mouse voltage-gated calcium channel (DHPR) β1a subunit, NCBI NM_031173, full length; also called β1a-FL; full-length β1a; source: E. coli BL21, purified (Ni-agarose, ubiquitin removed, preparative electrophoresis); not shown: polyhistidine-tagged ubiquitin, N-terminal, cleaved

[2] = molecular target: T2, DHPR β1a SH3 domain (β1a residues V101-P272) (mouse, UniProt Q8R3Z5-4 101-272); assay: as above; conditions: both partners purified
T2 construct: mouse DHPR β1a subunit, NCBI NM_031173, residues V101-P272 (split SH3 domain with the hook region); also called β1a–SH3 Domain (Residues 101–272); β1a SH3 protein; not shown: polyhistidine-tagged ubiquitin, N-terminal, cleaved
T2 sequence (Q8R3Z5 other isoform, or with tags, fused parts or gaps): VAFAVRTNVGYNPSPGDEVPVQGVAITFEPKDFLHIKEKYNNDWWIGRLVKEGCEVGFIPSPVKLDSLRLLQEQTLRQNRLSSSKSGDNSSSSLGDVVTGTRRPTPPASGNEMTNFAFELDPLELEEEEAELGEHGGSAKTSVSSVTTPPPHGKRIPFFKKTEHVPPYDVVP

T1 sequence (Q8R3Z5 other isoform, or with tags, fused parts or gaps): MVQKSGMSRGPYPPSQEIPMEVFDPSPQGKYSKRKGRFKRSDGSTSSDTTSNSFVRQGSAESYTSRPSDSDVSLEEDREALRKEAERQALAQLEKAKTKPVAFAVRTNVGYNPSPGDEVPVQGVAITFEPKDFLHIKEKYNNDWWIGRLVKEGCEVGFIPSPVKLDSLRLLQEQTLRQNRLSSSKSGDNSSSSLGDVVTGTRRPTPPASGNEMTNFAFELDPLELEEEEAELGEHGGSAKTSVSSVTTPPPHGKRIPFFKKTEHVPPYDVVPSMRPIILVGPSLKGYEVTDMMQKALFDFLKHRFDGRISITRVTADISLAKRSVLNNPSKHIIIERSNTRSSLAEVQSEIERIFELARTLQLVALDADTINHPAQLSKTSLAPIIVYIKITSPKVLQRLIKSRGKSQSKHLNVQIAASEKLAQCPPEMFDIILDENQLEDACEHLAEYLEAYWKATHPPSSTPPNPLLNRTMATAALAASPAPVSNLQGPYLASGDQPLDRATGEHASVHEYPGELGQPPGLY

B1: α1c II–III loop C region peptide (residues 851–895) (peptide, UniProt P15381-1 851-895, looked up)
peptide: INMDDLQPNESEDKSPYPNPETTGEEDEEEPEMPVGPRPRPLSEL
notes: DHPR α1c subunit (cardiac, CaV1.2), II-III loop C region, residues 851-895 of NP_001129994.1 (cardiac); also called α1c C; cardiac II-III loop C region; source: synthetic peptide
- Kd [1]: 3.5 ± 0.4 µM
- Kd [2]: 2.5 ± 0.2 µM

B2: DHPR α1s II-III loop (domain or fragment, UniProt P07293 666-791, looked up)
chain: EAESLTSAQKAKAEERKRRKMSRGLPDKTEEEKSVMAKKLEQKPKGEGIPTTAKLKVDEFESNVNEVKDPYPSADFPGDDEEDEPEIPVSPRPRPLAELQLKEKAVPIPEASSFFIFSPTNKVRVL
notes: DHPR α1s subunit (CaV1.1), cytoplasmic II-III loop, residues E666-L791 of NCBI X05921 (methods); the results say residues 666-790 of NP_001095190; Methods: E666-L791; results: 666-790; also called α1s DHPR II-III Loop; DHPR II-III loop; source: E. coli BL21, purified (Ni-agarose, ubiquitin removed, preparative electrophoresis); not shown: polyhistidine-tagged ubiquitin, N-terminal, cleaved
- Kd [1]: 2.5 ± 0.4 µM
- Kd [2]: 2.6 ± 0.2 µM

B3: α1s II–III loop C region peptide (residues 720–765) (peptide, UniProt P07293 720-765, looked up)
peptide: LKVDEFESNVNEVKDPYPSADFPGDDEEDEPEIPVSPRPRPLAELQ
notes: DHPR α1s subunit, II-III loop C region, residues 720-765 of NP_001095190.1 (skeletal); also called α1s C; skeletal II-III loop C region; source: synthetic peptide
- Kd [1]: 4.9 ± 0.6 µM
- Kd [2]: 3.6 ± 0.6 µM
